Laboratory results from patent US20160272683A1 (Novo Nordisk, published 2016).
* marks the point of attachment. C18 diacid = O=C(O)CCCCCCCCCCCCCCCCC(=O)*

Biological target: T1, human calcitonin receptor (human, UniProt P30988 25-474)
T1 construct: whole, on cells; also called hCT-R; hCTR
T1 sequence (looked up): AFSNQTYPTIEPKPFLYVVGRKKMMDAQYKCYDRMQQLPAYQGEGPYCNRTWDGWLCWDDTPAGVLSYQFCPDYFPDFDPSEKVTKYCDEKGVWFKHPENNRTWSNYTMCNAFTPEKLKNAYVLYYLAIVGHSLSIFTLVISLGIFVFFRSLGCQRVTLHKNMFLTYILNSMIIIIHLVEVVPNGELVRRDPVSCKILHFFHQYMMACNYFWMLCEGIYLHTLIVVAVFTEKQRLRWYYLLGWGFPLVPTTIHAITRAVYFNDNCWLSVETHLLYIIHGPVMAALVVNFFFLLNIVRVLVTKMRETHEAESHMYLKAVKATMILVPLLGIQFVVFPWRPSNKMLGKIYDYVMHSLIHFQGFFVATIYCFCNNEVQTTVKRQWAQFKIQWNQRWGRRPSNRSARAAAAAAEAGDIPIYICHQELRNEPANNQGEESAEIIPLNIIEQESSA
Assay: whole-cell competition vs 125I-human calcitonin (Assay VIIa)
Protocol: The binding assay was performed using a BHK tk'ts 13 cell line was stably transfected with the human calcitonin receptor, and a CRE-responsive luciferase reporter gene.
The day before the assay the cells were Seeded into Poly-D-Lysin coated 384W Opaque White, BD BioCoat plates (10000 cells/well) and Incubated overnight at 37° C., 5% CO2, 95% humidity. […] The morning after, the plates were washed three times in HBSS (4° C.), and lyzed in Lysis buffer (0.1 M NaOH), 1% SDS. Scintillation cocktail (MicroScint40®) was added and the plates were shaken at 500 rpm for a short period. The plate was incubated at room temperature in the dark for 1 hour and Read on a TopCounter™ (Packard). The IC₅₀ was calculated using (one site binding competition analysis) GraphPad Prism5 as a measure of receptor affinity.

B1: [N-terminal(C18 diacid), 9L, 10A]mimylin (peptide)
peptide: {C18 diacid}-EASELSTALAGRLSAELHELATLPRTETGPESP-NH2
SMILES: CC(C)C[C@H](NC(=O)[C@H](C)NC(=O)[C@@H](NC(=O)[C@H](CO)NC(=O)[C@H](CC(C)C)NC(=O)[C@H](CCC(=O)O)NC(=O)[C@H](CO)NC(=O)[C@H](C)NC(=O)[C@H](CCC(=O)O)NC(=O)CCCCCCCCCCCCCCCCC(=O)O)[C@@H](C)O)C(=O)N[C@@H](C)C(=O)NCC(=O)N[C@@H](CCCNC(=N)N)C(=O)N[C@@H](CC(C)C)C(=O)N[C@@H](CO)C(=O)N[C@@H](C)C(=O)N[C@@H](CCC(=O)O)C(=O)N[C@@H](CC(C)C)C(=O)N[C@@H](Cc1c[nH]cn1)C(=O)N[C@@H](CCC(=O)O)C(=O)N[C@@H](CC(C)C)C(=O)N[C@@H](C)C(=O)N[C@H](C(=O)N[C@@H](CC(C)C)C(=O)N1CCC[C@H]1C(=O)N[C@@H](CCCNC(=N)N)C(=O)N[C@H](C(=O)N[C@@H](CCC(=O)O)C(=O)N[C@H](C(=O)NCC(=O)N1CCC[C@H]1C(=O)N[C@@H](CCC(=O)O)C(=O)N[C@@H](CO)C(=O)N1CCC[C@H]1C(N)=O)[C@@H](C)O)[C@@H](C)O)[C@@H](C)O
notes: also called Ex. #27
IC50: 219 pM

B2: [N-terminal(C18 diacid), 9V]mimylin (peptide)
peptide: {C18 diacid}-EASELSTAVLGRLSAELHELATLPRTETGPESP-NH2
SMILES: CC(C)C[C@H](NC(=O)[C@H](CCC(=O)O)NC(=O)[C@H](Cc1c[nH]cn1)NC(=O)[C@H](CC(C)C)NC(=O)[C@H](CCC(=O)O)NC(=O)[C@H](C)NC(=O)[C@H](CO)NC(=O)[C@H](CC(C)C)NC(=O)[C@H](CCCNC(=N)N)NC(=O)CNC(=O)[C@H](CC(C)C)NC(=O)[C@@H](NC(=O)[C@H](C)NC(=O)[C@@H](NC(=O)[C@H](CO)NC(=O)[C@H](CC(C)C)NC(=O)[C@H](CCC(=O)O)NC(=O)[C@H](CO)NC(=O)[C@H](C)NC(=O)[C@H](CCC(=O)O)NC(=O)CCCCCCCCCCCCCCCCC(=O)O)[C@@H](C)O)C(C)C)C(=O)N[C@@H](C)C(=O)N[C@H](C(=O)N[C@@H](CC(C)C)C(=O)N1CCC[C@H]1C(=O)N[C@@H](CCCNC(=N)N)C(=O)N[C@H](C(=O)N[C@@H](CCC(=O)O)C(=O)N[C@H](C(=O)NCC(=O)N1CCC[C@H]1C(=O)N[C@@H](CCC(=O)O)C(=O)N[C@@H](CO)C(=O)N1CCC[C@H]1C(N)=O)[C@@H](C)O)[C@@H](C)O)[C@@H](C)O
notes: also called Ex. #9
IC50: 736 pM

B3: [N-terminal(C18 diacid), 17I]mimylin (peptide)
peptide: {C18 diacid}-EASELSTAALGRLSAEIHELATLPRTETGPESP-NH2
SMILES: CC[C@H](C)[C@H](NC(=O)[C@H](CCC(=O)O)NC(=O)[C@H](C)NC(=O)[C@H](CO)NC(=O)[C@H](CC(C)C)NC(=O)[C@H](CCCNC(=N)N)NC(=O)CNC(=O)[C@H](CC(C)C)NC(=O)[C@H](C)NC(=O)[C@H](C)NC(=O)[C@@H](NC(=O)[C@H](CO)NC(=O)[C@H](CC(C)C)NC(=O)[C@H](CCC(=O)O)NC(=O)[C@H](CO)NC(=O)[C@H](C)NC(=O)[C@H](CCC(=O)O)NC(=O)CCCCCCCCCCCCCCCCC(=O)O)[C@@H](C)O)C(=O)N[C@@H](Cc1c[nH]cn1)C(=O)N[C@@H](CCC(=O)O)C(=O)N[C@@H](CC(C)C)C(=O)N[C@@H](C)C(=O)N[C@H](C(=O)N[C@@H](CC(C)C)C(=O)N1CCC[C@H]1C(=O)N[C@@H](CCCNC(=N)N)C(=O)N[C@H](C(=O)N[C@@H](CCC(=O)O)C(=O)N[C@H](C(=O)NCC(=O)N1CCC[C@H]1C(=O)N[C@@H](CCC(=O)O)C(=O)N[C@@H](CO)C(=O)N1CCC[C@H]1C(N)=O)[C@@H](C)O)[C@@H](C)O)[C@@H](C)O
notes: also called Ex. #11
IC50: 1370 pM

B4: [N-terminal(C18 diacid), 9V, 10I]mimylin (peptide)
peptide: {C18 diacid}-EASELSTAVIGRLSAELHELATLPRTETGPESP-NH2
SMILES: CC[C@H](C)[C@H](NC(=O)[C@@H](NC(=O)[C@H](C)NC(=O)[C@@H](NC(=O)[C@H](CO)NC(=O)[C@H](CC(C)C)NC(=O)[C@H](CCC(=O)O)NC(=O)[C@H](CO)NC(=O)[C@H](C)NC(=O)[C@H](CCC(=O)O)NC(=O)CCCCCCCCCCCCCCCCC(=O)O)[C@@H](C)O)C(C)C)C(=O)NCC(=O)N[C@@H](CCCNC(=N)N)C(=O)N[C@@H](CC(C)C)C(=O)N[C@@H](CO)C(=O)N[C@@H](C)C(=O)N[C@@H](CCC(=O)O)C(=O)N[C@@H](CC(C)C)C(=O)N[C@@H](Cc1c[nH]cn1)C(=O)N[C@@H](CCC(=O)O)C(=O)N[C@@H](CC(C)C)C(=O)N[C@@H](C)C(=O)N[C@H](C(=O)N[C@@H](CC(C)C)C(=O)N1CCC[C@H]1C(=O)N[C@@H](CCCNC(=N)N)C(=O)N[C@H](C(=O)N[C@@H](CCC(=O)O)C(=O)N[C@H](C(=O)NCC(=O)N1CCC[C@H]1C(=O)N[C@@H](CCC(=O)O)C(=O)N[C@@H](CO)C(=O)N1CCC[C@H]1C(N)=O)[C@@H](C)O)[C@@H](C)O)[C@@H](C)O
notes: also called Ex. #26
IC50: 570 pM

B5: [N-terminal(C18 diacid), 9V, 28P]mimylin (peptide)
peptide: {C18 diacid}-EASELSTAVLGRLSAELHELATLPRTEPGPESP-NH2
SMILES: CC(C)C[C@H](NC(=O)[C@H](CCC(=O)O)NC(=O)[C@H](Cc1c[nH]cn1)NC(=O)[C@H](CC(C)C)NC(=O)[C@H](CCC(=O)O)NC(=O)[C@H](C)NC(=O)[C@H](CO)NC(=O)[C@H](CC(C)C)NC(=O)[C@H](CCCNC(=N)N)NC(=O)CNC(=O)[C@H](CC(C)C)NC(=O)[C@@H](NC(=O)[C@H](C)NC(=O)[C@@H](NC(=O)[C@H](CO)NC(=O)[C@H](CC(C)C)NC(=O)[C@H](CCC(=O)O)NC(=O)[C@H](CO)NC(=O)[C@H](C)NC(=O)[C@H](CCC(=O)O)NC(=O)CCCCCCCCCCCCCCCCC(=O)O)[C@@H](C)O)C(C)C)C(=O)N[C@@H](C)C(=O)N[C@H](C(=O)N[C@@H](CC(C)C)C(=O)N1CCC[C@H]1C(=O)N[C@@H](CCCNC(=N)N)C(=O)N[C@H](C(=O)N[C@@H](CCC(=O)O)C(=O)N1CCC[C@H]1C(=O)NCC(=O)N1CCC[C@H]1C(=O)N[C@@H](CCC(=O)O)C(=O)N[C@@H](CO)C(=O)N1CCC[C@H]1C(N)=O)[C@@H](C)O)[C@@H](C)O
notes: also called Ex. #32
IC50: 3350 pM

B6: [N-terminal(C18 diacid), 9V, 25P]mimylin (peptide)
peptide: {C18 diacid}-EASELSTAVLGRLSAELHELATLPPTETGPESP-NH2
SMILES: CC(C)C[C@H](NC(=O)[C@H](CCC(=O)O)NC(=O)[C@H](Cc1c[nH]cn1)NC(=O)[C@H](CC(C)C)NC(=O)[C@H](CCC(=O)O)NC(=O)[C@H](C)NC(=O)[C@H](CO)NC(=O)[C@H](CC(C)C)NC(=O)[C@H](CCCNC(=N)N)NC(=O)CNC(=O)[C@H](CC(C)C)NC(=O)[C@@H](NC(=O)[C@H](C)NC(=O)[C@@H](NC(=O)[C@H](CO)NC(=O)[C@H](CC(C)C)NC(=O)[C@H](CCC(=O)O)NC(=O)[C@H](CO)NC(=O)[C@H](C)NC(=O)[C@H](CCC(=O)O)NC(=O)CCCCCCCCCCCCCCCCC(=O)O)[C@@H](C)O)C(C)C)C(=O)N[C@@H](C)C(=O)N[C@H](C(=O)N[C@@H](CC(C)C)C(=O)N1CCC[C@H]1C(=O)N1CCC[C@H]1C(=O)N[C@H](C(=O)N[C@@H](CCC(=O)O)C(=O)N[C@H](C(=O)NCC(=O)N1CCC[C@H]1C(=O)N[C@@H](CCC(=O)O)C(=O)N[C@@H](CO)C(=O)N1CCC[C@H]1C(N)=O)[C@@H](C)O)[C@@H](C)O)[C@@H](C)O
notes: also called Ex. #31
IC50: 506 pM

B7: [N-terminal(C18 diacid), 9V, 18A]mimylin (peptide)
peptide: {C18 diacid}-EASELSTAVLGRLSAELAELATLPRTETGPESP-NH2
SMILES: CC(C)C[C@H](NC(=O)[C@H](CCC(=O)O)NC(=O)[C@H](C)NC(=O)[C@H](CO)NC(=O)[C@H](CC(C)C)NC(=O)[C@H](CCCNC(=N)N)NC(=O)CNC(=O)[C@H](CC(C)C)NC(=O)[C@@H](NC(=O)[C@H](C)NC(=O)[C@@H](NC(=O)[C@H](CO)NC(=O)[C@H](CC(C)C)NC(=O)[C@H](CCC(=O)O)NC(=O)[C@H](CO)NC(=O)[C@H](C)NC(=O)[C@H](CCC(=O)O)NC(=O)CCCCCCCCCCCCCCCCC(=O)O)[C@@H](C)O)C(C)C)C(=O)N[C@@H](C)C(=O)N[C@@H](CCC(=O)O)C(=O)N[C@@H](CC(C)C)C(=O)N[C@@H](C)C(=O)N[C@H](C(=O)N[C@@H](CC(C)C)C(=O)N1CCC[C@H]1C(=O)N[C@@H](CCCNC(=N)N)C(=O)N[C@H](C(=O)N[C@@H](CCC(=O)O)C(=O)N[C@H](C(=O)NCC(=O)N1CCC[C@H]1C(=O)N[C@@H](CCC(=O)O)C(=O)N[C@@H](CO)C(=O)N1CCC[C@H]1C(N)=O)[C@@H](C)O)[C@@H](C)O)[C@@H](C)O
notes: also called Ex. #33
IC50: 752 pM
